# From the RNAGym collection of RNA variant scans (doi:10.1073/pnas.2313332121)
# Fewer inactive variants are shown than the library holds.
# B1: TPR 5TU (parent)
# chain: GGAUCUUCUCGAUCUAACAAAAAAGACAAAUCUGCCACAAAGCUUGAGAGCAUCUUCGGAUGCAGAGGCGGCAGCCUUCGGUGGCGCGAUAGCGCCAACGUUCUCAACUAUGACACGCAAAACGCGUGCUCCGUUGAAUGGAGUUUAUCAUG
# Variants of: B1
# Experiment: polymerase ribozyme fitness, log enrichment relative to wild type (log ratio); higher = more active; in vitro selection for triplet polymerase activity
# Method in brief: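 Streptavidin-bead capture of gel-excised extended constructs, followed by RT-PCR, closed a single triplicate in vitro selection round. That round began by annealing PCR-built, transcribed mutant libraries of each subunit of a heterodimeric triplet polymerase ribozyme with a biotinylated primer, the partner subunit and triplets, then incubating them frozen at −7 °C. After Illumina sequencing of inputs and outputs, genotypes needed ≥10 input reads and ≥1 read per output. Fitness is the base-2 logarithm of genotype enrichment over wild-type enrichment, using inverse-variance-weighted replicate averages.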
row,Variant,polymerase ribozyme fitness (log ratio)
1,A49U A66G G80C G84U U102G,≤ -4.2
2,C54G G94A C108A C125U,≤ -4.2
3,G48C C96U A110G,≤ -4.2
4,U9G A16G C18A C63U,≤ -4.2
5,G70U C87A A115U C116A U151A,≤ -4.2
6,G46C C85U A110U,-4.17
7,C57G G68A G84U G126C U135G U144A,≤ -4.2
8,A19U A120U,-0.806
9,A29U G59C U82A C93U,≤ -4.2
10,A24U G50A C108G C125A G141C,≤ -4.2
11,C14U C87A,≤ -4.2
12,A37C G92A U146G,-4.01
13,C93A G124C U127C G133C U135A U148G,≤ -4.2
14,G80A G128U,-3.18
15,A17G A29C A107U U135G,≤ -4.2
16,G50C C118A,-4.05
17,C5U G50A C54A C76U G84U C95U C114U,≤ -4.2
18,C18G C32G A66U A89G C95G A107U,≤ -4.2
19,G62C,-1.07
20,A60G C76A A91G C95U A107C,≤ -4.2
21,A47G A49U G50C C57U A107C A150C,≤ -4.2
22,C38U C63U A73G C87U,-0.21
23,A41C A49C,-4.01
24,U56A A110C,-3.84

row,Variant,polymerase ribozyme fitness (log ratio)
1,A24U A73U A119G A121U C132A,-3.66
2,U7G A19U A52U U56A A91G C108A,≤ -4.2
3,C54A G80A C103G A110U A120U C132G,≤ -4.2
4,A19U A73G G86U,-1.03
5,C93U A150G,-1.93
6,A29C A40G C123A U127A,≤ -4.2
7,C14U U15G U45A G58U C75G U135C,≤ -4.2
8,A39U U53C C108G C149U,≤ -4.2
9,C5G A37U A40U C95A U139A,≤ -4.2
10,C43G C69A,≤ -4.2
11,G81U G92U U148G G152A,-3.95
12,A23C U53A G83C A91G A147U,≤ -4.2
13,C14U C118U,-1.65
14,C76A A119U U135C C149G,≤ -4.2
15,U4G U7G A49U C75G C93U,≤ -4.2
16,G25C A41C U55A U61A C116U U144A,≤ -4.2
17,A39G G48A C51U U56C G59U A150C,≤ -4.2
18,G50A A60C G62A C76U C96U G100U C108G,≤ -4.2
19,C96U G143C,-3.12
20,G70C G92U,-3.01
21,A12G G59A G94C,-0.564
22,A39U A41C G80C G84U A142C C149A,≤ -4.2
23,C8G G25C U33C C93U G124C,≤ -4.2
24,A40C A41U C99U C125A,-2.04

row,Variant,polymerase ribozyme fitness (log ratio)
1,C54U C76U C85G,-1.18
2,A12U C18G G92C,-2.01
3,A22U C54U U55A,0.0331
4,U6A C54A C95G A98U,-2.26
5,G11A A40G A49C U61A G81A C125A,≤ -4.2
6,C5A C87U C129A,-3.51
7,C57A U78G A97G G117A A122G,≤ -4.2
8,U53A C123U,-0.0861
9,U45G G70A C87U U144G,≤ -4.2
10,U56A A91G,-3.41
11,A3U U13G A20U G74C,≤ -4.2
12,G71A G94A,-2.94
13,C93U G133C,-2.76
14,A30G C57U C63U G68C C95U A120C C125G,≤ -4.2
15,C51U U53A G65U G84U C93A C116G U135G,≤ -4.2
16,A40U C87U,-0.375
17,C99G G117C A122G,-1.51
18,A19C C72A A107U G143A,≤ -4.2
19,C38A G84A U148G,≤ -4.2
20,C76U C96U A97G C99U C103G,≤ -4.2
21,U4A C5G A22U G25U A30U C63U A66C G143U,≤ -4.2
22,C32U U61G,-3.73
23,G50U A122G,-0.236
24,U6G A24U A119U G136U,-3.74

row,Variant,polymerase ribozyme fitness (log ratio)
1,G84A A98C C105G U148C,-3.35
2,G86U G92U,-1.95
3,U53A G143A U146C,-2.83
4,A39U G80C A91U,≤ -4.2
5,A40U C87U G88U,≤ -4.2
6,A60G U134G G143U,-3.39
7,C99G G126U,-0.93
8,C96U A107U,-3.35
9,A3G A17C G143C,-2.6
10,G50A C96A,-2.68
11,A41U G124U,-0.896
12,A19G G50U A73G C85U,-0.781
13,C69G C103A U144G,-1.57
14,U56A C57G A66U G84A A98G C103A C125A,≤ -4.2
15,A89U U148G,-3.92
16,U15A A22G C36A C72U C85U C132U,≤ -4.2
17,U44A C72U A73G G86U A138C,≤ -4.2
18,A49G A142C,-1.59
19,C35U G84C,-1.94
20,A41C C57A C96U U134C,-0.224
21,C27G C51U G80C G86U,≤ -4.2
22,C14U A47C G50A G70A U77C C85A C125G C132A A142U,≤ -4.2
23,C8A G88U G92U C95U A106C U127G,≤ -4.2
24,A66G A89U C93U C95G,≤ -4.2

row,Variant,polymerase ribozyme fitness (log ratio)
1,A49G A52C G59A G84A G94U C103U,≤ -4.2
2,U56G A150C,-3.51
3,G68C C85G G136C,≤ -4.2
4,A41U U61A G68U A107C U145G,≤ -4.2
5,A89G C95G C132U,-3.36
6,C14G A37C,-3.05
7,A20G G70C C75U C93A C95U U109C,≤ -4.2
8,C76G G84U U145C,≤ -4.2
9,U13G A21C G48U,-1.33
10,C18G C57U,-0.371
11,G50A A52C A97G G100A C114G G133U,≤ -4.2
12,A12U A24C C63G C85U C87A G94C A107G G126A A137G G141U,≤ -4.2
13,A49C U82A G86A G126A,≤ -4.2
14,C85A U135G A137U,≤ -4.2
15,A47G G58C G65A G141U,-1.24
16,A24G C54U G67A G141A A150C,≤ -4.2
17,U53C U78G U127C U148C,≤ -4.2
18,C8A A52C C75U C95G C96U U109A,≤ -4.2
19,A16C G94A C116G,-0.496
20,G42A G92A C96U A98G U151G,≤ -4.2
21,A24U U82A C96G,0.476
22,A3C G46C A49G G92A U104G A113U G124A A142U,≤ -4.2
23,A49C G62U A107U G152A,≤ -4.2
24,G68C,-3.92

row,Variant,polymerase ribozyme fitness (log ratio)
1,A23G A37G A39G U44A A64U C75U C95U C108A A142U,≤ -4.2
2,A22U C35G C76G G92A C105U,≤ -4.2
3,A21G A28G U61C,≤ -4.2
4,U4C C5A C87A A91G U145A,≤ -4.2
5,A21G A52U C85U G94U A98U C116U,-1.64
6,G92U G124U G141C,-0.283
7,A22U C108U,-2.85
8,A20U C35U G59C C75U C87U C99U A137U A138U,≤ -4.2
9,A39G U77G,≤ -4.2
10,A41U C63G C85A G152U,≤ -4.2
11,C51U C93A A150U,-0.998
12,A12U U56G A91G,-2.61
13,A49C G50C A91U C96G,≤ -4.2
14,U55A U134G,-1.99
15,A16C C51A C54G C57A C96A G117U U135G,≤ -4.2
16,A28C G80C U82G G88C U130C,≤ -4.2
17,U15G G50C C69U C76A G84U,≤ -4.2
18,C5G C35U G80U C95U U104A,≤ -4.2
19,C87U A121U,-0.38
20,A16U G50C U56A G84C A97U U101A A113C A119G G133U A137U,≤ -4.2
21,G84A C123G,-0.679
22,C57A A60C,-1.35
23,C76A U82A C85G A106G A107U C108G C129A,≤ -4.2
24,G81A G152U,-3.09

row,Variant,polymerase ribozyme fitness (log ratio)
1,A120G G128U,-2.36
2,G81C C93U U101G,0.439
3,C54A U56G A110U U145G,≤ -4.2
4,A49G A97G,-1.11
5,A12U C96U U144G,0.0703
6,U4C C10U U56G A60U G92U,-3.76
7,U77A G88A,≤ -4.2
8,A23G C79G,≤ -4.2
9,C8G A47C C54G,≤ -4.2
10,C35A C95A A107G G143U,-3.95
11,U61C U82C C116U U134C,-2.24
12,G25U C85G,-3.79
13,U7A C18U A91U A97U U102C U144G,≤ -4.2
14,C76G C96G C99G G140U U148G,≤ -4.2
15,U33G C95A,-3
16,U45G G48U A60U C72A G80C C96A U102G,≤ -4.2
17,A30U U33C A138G,≤ -4.2
18,A40C A98U A122U,0.766
19,C57G G83A,-1.02
20,A29U G48A C87G A121G G141C G152U,≤ -4.2
21,A3U G46A A113U,-3.1
22,A21G A41U C85A C116U,-1.58
23,C76A C79U C125U G140U,≤ -4.2
